Experimental findings from patent publication US20120045393A1 (priority 2009, published 2012) are described below.

Series [1] in a line: plasma (blood) and urine samples collected post injection in normal mice. The conditions noted are these: up to 60 min post injection.
Series [2] is described as follows: kidney homogenate. The conditions noted are these: female Tac:NCr:Foxn1^nu/nu mice, 37° C., up to 60 min.
Series [3] is described as follows: liver homogenate. The conditions noted are these: female Tac:NCr:Foxn1^nu/nu mice, 37° C., up to 60 min.
Series [4] in a line: kidney homogenate stock solution. The conditions noted are these: female Tac:NCr:Foxn1^nu/nu mice, 37° C., up to 60 min.
The target in series [5] is T1, LHRH binding sites on EFO-27 human ovarian cancer cells (human).
T1 chain: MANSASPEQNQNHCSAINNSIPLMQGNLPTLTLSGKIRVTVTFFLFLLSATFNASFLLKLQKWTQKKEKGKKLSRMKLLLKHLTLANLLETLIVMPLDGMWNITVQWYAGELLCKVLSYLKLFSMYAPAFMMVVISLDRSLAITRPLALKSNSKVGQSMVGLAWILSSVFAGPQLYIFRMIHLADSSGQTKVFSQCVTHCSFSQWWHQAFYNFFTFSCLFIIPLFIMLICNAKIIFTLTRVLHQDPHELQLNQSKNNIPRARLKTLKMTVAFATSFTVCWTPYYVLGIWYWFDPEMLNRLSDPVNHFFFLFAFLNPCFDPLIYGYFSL
Put plainly: competition with [125I-Tyr8]BRU-2477 on EFO-27 cells.

Series [6] addresses LHRH receptor (LHRH binding sites) on EFO-27 human ovarian cancer cells (human). Description: internalization/efflux study, cell-associated radioactivity, EFO-27 cells.
Series [7] shares this target. Description: internalization/efflux study, cell-associated radioactivity, EFO-27 cells, 156 fmoles added/well.
The target is the same in series [8]. Description: saturation binding to EFO-27 cells, single-site fit.
The target of series [9] is T1, LHRH binding sites (presumed LHRH …). Description: competition with [125I-Tyr8]BRU-2477 on EFO-27 cells.
For series [10] the target is unchanged. The description is as above.
Series [11] addresses LHRH binding sites on EFO-27 human ovarian cancer cells (human). The series is described as above. This is another data set of the same source.
Series [12] concerns the target LHRH receptor (LHRH binding sites) on EFO-27 human ovarian cancer cells (human). Put plainly: competition with [125I-Tyr8]BRU-2477, EFO-27 cells.
For series [13] the target is unchanged. Description: competition with [125I-Tyr8]BRU-2477 for binding to EFO-27 cells.
For series [14] the target is unchanged. Described as above. The source holds these as a separate data set.
The target of series [15] is LHRH binding sites on EFO-27 human ovarian cancer cells (human). Description: competition with [125I-Tyr8]BRU-2477 on EFO-27 cells. This is another data set of the same source.
Series [16] addresses LHRH receptor (LHRH binding sites) on EFO-27 human ovarian cancer cells (human). Put plainly: competition with [125I-Tyr8]BRU-2477 for binding to EFO-27 cells. This is another data set of the same source.
Series [17] has the same target. Put plainly: internalization/efflux study, cell-associated radioactivity, EFO-27 cells, 78 fmoles added/well.
The target is the same in series [18]. Put plainly: direct binding of 177Lu-labeled peptide to EFO-27 cells, single concentration.
Series [19] has the same target. Put plainly: internalization/efflux study, cell-associated radioactivity, EFO-27 cells, 200 fmoles added/well.
Series [20] shares this target. Put plainly: internalization/efflux study, cell-associated radioactivity, EFO-27 cells, 292 fmoles added/well.
Series [21] has as its target T1, LHRH binding sites (presumed LHRH …). Description: competition with [125I-Tyr8]BRU-2477 on EFO-27 cells.
Series [22] shares this target. The description is as above.
The target of series [23] is LHRH receptor (LHRH binding sites) on EFO-27 human ovarian cancer cells (human). Put plainly: internalization/efflux study, cell-associated radioactivity, EFO-27 cells, 205 fmoles added/well.
Series [24] addresses T1, LHRH binding sites (presumed LHRH …). Put plainly: competition with [125I-Tyr8]BRU-2477 on EFO-27 cells.
Series [25] has the same target. The description is as above.
In series [26] the target is LHRH receptor (LHRH binding sites) on EFO-27 human ovarian cancer cells (human). Put plainly: internalization/efflux study, cell-associated radioactivity, EFO-27 cells, 212 fmoles added/well.
Series [27] has as its target LHRH receptor (LHRH binding sites) on PC-3 human prostate cancer cells (human). Put plainly: internalization/efflux study, cell-associated radioactivity, PC-3 cells.
Series [28] shares this target. Put plainly: internalization/efflux study, cell-associated radioactivity, PC-3 cells, 230 fmoles added/well.
Series [29] addresses LHRH receptor (LHRH binding sites) on EFO-27 human ovarian cancer cells (human). Put plainly: internalization/efflux study, cell-associated radioactivity, EFO-27 cells, 203 fmoles added/well.

“Also recorded” adds a separate entry of the source. Read-outs that look alike come from different tables or passages of the source. Non-standard residues stand in square brackets, D forms with d. Primed or numbered codes have the meaning given here. *: point of attachment. DO3A10CM″ = chelating group at the N-terminus (X in the sequence tables); Bpa = N[C@@H](Cc1ccc(C(=O)c2ccccc2)cc1)C(=O)O; d2Nal = N[C@H](Cc1ccc2ccccc2c1)C(=O)O; pGlu = O=C1CC[C@@H](C(=O)O)N1; DO3A10CM = not defined here; Bpa4 = non-natural residue; Amfe4 = not defined here; Hpgly = not defined here; Mogly = not defined here; Tha = not defined here; azaGly = NNC(=O)O; Sar = CNCC(=O)O; 125I = [125I]*

For “Lu-DOTA-Dnal2-Arg-Trp-Ser-His-Darg-Trp-Bpa4-Pro-azaGly-NH2”, the cleaved bond entry is “Bpa48-Pro9, major” in series [1]; “Bpa48-Pro9, major” in series [2]; “Bpa48-Pro9, major” in [3]; “Bpa48-Pro9, major; also recorded: Trp7-Bpa48, major” in series [4]. Also, in series [1], the fragment found entry is “BRU-3046; BRU-2813[1-7]-OH”.

B1: BRU-2763 (peptide)
peptide: {DO3A10CM″}-[Sar]HWSH[dR]WHP[azaGly]-NH2
notes: AA8 His
On to B1, for which the concentration for a half-maximal effect (EC50) in series [5] stood at 13600 nM.

B2: [Darg^6, ^125I-Tyr^8, azaGly^10]-LHRH-II (peptide)
peptide: [pGlu]HWSH[dR]WY(125I)P[azaGly]-NH2
As to B2, the Bound % in [6] is 1.2%. Besides, the Bound fmoles in series [7] was 1.87 fmol. In series [8], this molecule displayed a Kd of 1290 nM, a Max. binding (Bmax) (pmoles/10^6 cells) of 141 and a Receptors/cell (receptors/cell) of 8.5e+07.

B3: BRU-3111 (peptide)
peptide: XRRSHXWXPX
modifications: DO3A10CM on N-terminus; AA1 Dnal2; AA6 Darg; AA8 Bpa4; AA10 azaGly-NH2
notes: AA3 Arg
As to B3, the EC50 in series [9] was 250 nM.

B4: BRU-3110 (peptide)
peptide: DO3A10CM-[d2Nal]RESH[dR]W[Bpa]P[azaGly]-NH2
modifications: reading uncertain
notes: AA3 Glu
Turning to B4, the “fold lower binding potency than BRU-2813” value in [10] was approximately 8 fold. Also, in series [9], the EC50 was determined as 2600 nM.

B5: BRU-2813 (peptide)
peptide: XRWSHXWXPX
modifications: DO3A10CM on N-terminus; AA1 Dnal2; AA6 Darg; AA8 Bpa4; AA10 azaGly-NH2
B5 showed a percent more potency than BRU-2666 in series [11] of 30%. The half-maximal effective concentration (EC50) in [12] stood at 330 nM; in [13], 330 nM; in series [14], 300 nM; in series [15], 330 nM; in series [16] it was 420 nM.

B6: ^177Lu-BRU-2796 (peptide)
peptide: DO3A10CM-G[Mogly]HWSH[dR]W[Bpa]P[azaGly]-NH2
modifications: reading uncertain; also: 177Lu complexed by DO3A10CM, printed as 177Lu-DO3A10CM-Gly-Mogly-His-Trp-Ser-His-Darg-Trp-Bpa4-Pro-azaGly-NH2
Take B6: the Bound % in series [6] amounted to 1.2%. Besides, in [17], the Bound fmoles is 0.93 fmol.

B7: BRU-2666 (peptide)
peptide: XHWSHXWXPX
modifications: DO3A10CM on N-terminus; AA1 Dnal2; AA6 Darg; AA8 Bpa4; AA10 azaGly-NH2
Consider B7, for which the EC50 in [11] is 2600 nM; in [12], 470 nM; in series [14], 390 nM; in series [15], 470 nM. The molecule also returned a times more potent than the Sar1 analog (BRU-2443) in series [11] of 2 times.

B8: BRU-2730 (peptide)
peptide: DO3A10CM-[Sar]HWSH[dR]WFP[azaGly]-NH2
modifications: reading uncertain
notes: AA8 Phe
Take B8: in series [5], the response was half-maximal at 12900 nM (EC50).

B9: BRU-2723 (peptide)
peptide: DO3A10CM-[Sar]HWSH[dR]WRP[azaGly]-NH2
modifications: reading uncertain
notes: AA8 Arg
With B9, the EC50 in series [5] amounted to 2830 nM.

B10: BRU-3108 (peptide)
peptide: DO3A10CM-[d2Nal]RLSH[dR]W[Bpa]P[azaGly]-NH2
modifications: reading uncertain
notes: AA3 Leu
Take B10: the midpoint of the response in [9], the EC50, lay at 560 nM.

B11: ^177Lu-BRU-2756 (peptide)
peptide: DO3A10CM-[Sar][Amfe4]WSH[dR]W[Bpa]P[azaGly]-NH2
modifications: reading uncertain; also: 177Lu complexed by DO3A10CM, printed as 177Lu-DO3A10CM-Sar-Amfe4-Trp-Ser-His-Darg-Trp-Bpa4-Pro-azaGly-NH2
In [18], B11 showed a % Bound of 5.17%. Moreover, the Bound % in series [6] amounted to 5.1%. Also, the Bound fmoles in series [19] came out at 10.2 fmol.

B12: ^177Lu-BRU-2968 (peptide)
peptide: XRWSHXWXP
modifications: 177Lu held by the N-terminal DO3A10CM: 177Lu-DO3A10CM-Dnal2-Arg-Trp-Ser-His-Darg-Trp-Bpa4-Pro-Da15o3pt
Consider B12, for which, in series [18], the % Bound was determined as 23.5%. Also, the Bound % in [6] came to 23.6%. The Bound fmoles in [20] stood at 68.8 fmol.

B13: BRU-3046 (peptide)
peptide: XRWSHXW
modifications: DO3A10CM on N-terminus; AA1 Dnal2; AA6 Darg; AA8-AA10 absent; C-terminal free acid
As to B13, the EC50 in [21] and in [22] was 15900 nM each time.

B14: ^177Lu-BRU-2666 (peptide)
peptide: XHWSHXWXPX
modifications: 177Lu held by the N-terminal DO3A10CM: 177Lu-DO3A10CM-Dnal2-His-Trp-Ser-His-Darg-Trp-Bpa4-Pro-azaGly-NH2
Molecule B14 showed a % Bound in [18] of 13.2%. For the same molecule, in series [6], the Bound % came to 12.2%. Moreover, the Bound fmoles in series [23] came out at 25 fmol. In [8], this molecule had a dissociation constant Kd of 920 nM, a Max. binding (Bmax) (pmoles/10^6 cells) of 183 and a Receptors/cell (receptors/cell) of 1.1e+08.

B15: BRU-3106 (peptide)
peptide: XRFSHXWXPX
modifications: DO3A10CM on N-terminus; AA1 Dnal2; AA6 Darg; AA8 Bpa4; AA10 azaGly-NH2
notes: AA3 Phe
With B15, in series [9], a half-maximal effect (EC50) was put at 430 nM.

B16: BRU-2769 (peptide)
peptide: DO3A10CM-[Sar]HWS[Tha][dR]W[Bpa]P[azaGly]-NH2
modifications: reading uncertain
Turning to B16, the “fold lower binding potency than BRU-2443” value in series [10] is approximately 8 fold. For the same molecule, a half-maximal response in series [24] (EC50) required 7340 nM.

B17: BRU-2724 (peptide)
peptide: DO3A10CM-[Sar]HWSH[dR]WWP[azaGly]-NH2
modifications: reading uncertain
notes: AA8 Trp
As to B17, the concentration giving a half-maximal response (EC50) in series [5] and in [25] was 2670 nM in each case.

B18: ^177Lu-BRU-2813 (peptide)
peptide: XRWSHXWXPX
modifications: 177Lu held by the N-terminal DO3A10CM: 177Lu-DO3A10CM-Dnal2-Arg-Trp-Ser-His-Darg-Trp-Bpa4-Pro-azaGly-NH2
In series [18], B18 yielded a % Bound of 18.8%. Also, the Bound fmoles turned out to be 40.5 fmol in series [26] and 44.3 fmol in series [28]. In addition, the Bound % was 19.1% in series [6] and 19.3% in series [27].

B19: ^177Lu-BRU-2757 (peptide)
peptide: XHWSHXWXPX
modifications: 177Lu held by the N-terminal DO3A10CM: 177Lu-DO3A10CM-Damfe4-His-Trp-Ser-His-Darg-Trp-Bpa4-Pro-azaGly-NH2
Turning to B19, the % Bound in series [18] amounted to 11.1%. In addition, the Bound % in series [6] stood at 9.5%. Moreover, in [19], the Bound fmoles was 19 fmol.

B20: BRU-2767 (peptide)
peptide: DO3A10CM-[Sar]HWSH[dR]WP[azaGly]-NH2
modifications: not fully specified; reading uncertain
The molecule B20 showed an EC50 in series [5] of 10000 nM.

B21: BRU-3064 (peptide)
peptide: DO3A10CM-[d2Nal]RWSH[dR]W[Bpa4]-OH
modifications: reading uncertain
B21 displayed a concentration for a half-maximal effect (EC50) in [22] of 670 nM.

B22: ^177Lu-BRU-2797 (peptide)
peptide: DO3A10CM-G[Hpgly]HWSH[dR]W[Bpa]P[azaGly]-NH2
modifications: reading uncertain; also: 177Lu complexed by DO3A10CM, printed as 177Lu-DO3A10CM-Gly-Hpgly-His-Trp-Ser-His-Darg-Trp-Bpa4-Pro-azaGly-NH2
In series [18], B22 came in with a % Bound of 4.64%. Further, in series [6], the Bound % stood at 2.02%. For the same molecule, the Bound fmoles in series [29] worked out at 4.1 fmol.
